This assay deals with RNF13 DN-HA (dominant-negative RNF13, HA-tagged) (human) (UniProt O43567). The experiment in a line: co-IP.
Sequence of UniProt O43567 (O43567 35-381): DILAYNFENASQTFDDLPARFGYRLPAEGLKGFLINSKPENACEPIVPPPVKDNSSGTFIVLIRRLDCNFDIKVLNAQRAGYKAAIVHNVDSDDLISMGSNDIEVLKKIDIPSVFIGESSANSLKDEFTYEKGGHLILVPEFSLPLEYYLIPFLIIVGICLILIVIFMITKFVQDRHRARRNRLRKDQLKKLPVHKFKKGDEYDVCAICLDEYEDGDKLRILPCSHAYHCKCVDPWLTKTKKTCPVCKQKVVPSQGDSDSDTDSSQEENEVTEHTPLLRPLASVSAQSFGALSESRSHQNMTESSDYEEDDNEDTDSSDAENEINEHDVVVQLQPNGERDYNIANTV

B1: IDS-V5 (wild-type, full-length human iduronate 2-sulfatase, C-terminal V5 tag) (enzyme)
chain: SETQANSTTDALNVLLIIVDDLRPSLGCYGDKLVRSPNIDQLASHSLLFQNAFAQQAVCAPSRVSFLTGRRPDTTRLYDFNSYWRVHAGNFSTIPQYFKENGYVTMSVGKVFHPGISSNHTDDSPYSWSFPPYHPSSEKYENTKTCRGPDGELHANLLCPVDVLDVPEGTLPDKQSTEQAIQLLEKMKTSASPFFLAVGYHKPHIPFRYPKEFQKLYPLENITLAPDPEVPDGLPPVAYNPWMDIRQREDVQALNISVPYGPIPVDFQRKIRQSYFASVSYLDTQVGRLLSALDDLQLANSTIIAFTSDHGWALGEHGEWAKYSNFDVATHVPLIFYVPGRTASLPEAGEKLFPYLDPFDSASQLMEPGRQSMDLVELVSLFPTLAGLAGLQVPPRCPVPSFHVELCREGKNLLKHFRFRDLEEDPYLPGNPRELIAYSQYPRPSDIPQWNSDKPSLKDIKIMGYSIRTIDYRYTVWVGFNPDEFLANFSDIHAGELYFVDSDPLQDHNMYNDSQGGDLFQLLMP
Take B1: the amount of IDS co-immunoprecipitated relative to RNF13 WT is 50%.

The record behind these values is publication doi:10.1101/2025.06.20.660705.
